Reference: the supplement of paper PMC7877785
± gives the uncertainty stated by the source.

Test: self-splicing fitness, log relative to wild type (ln ratio); higher = more splicing; Tetrahymena group I intron in knt gene, E. coli kanamycin selection, DiMSum; sequences stand for … in CUCUCU…GGAGGGAAAAGUUAUCAGGCAUGCACCUGGUAGCUAGUCUUUAAACCAAUAGAUUGCAUCGGUUUAAAAGGCAAGACCGUCAAAUUGCGGGAAAGGGGUCAACAGCCGUUCAGUACCAAGUCUCAGGGGAAACUUUGAGAUGGCCUUGCAAAGGGUAUGGUAAUAAGCUGACGGACAUGGUCCUAACCACGCAGCCAAGUCCUAAGUCAACAGAUCUUCUGUUGAUAUGGAUGCAGUUCACAGACUAAAUGUCGGUCGGGGAAGAUGUAUUCUUCUCAUAAGAUAUAGUCGGACCUCUCCUUAAUGGGAGCUAGCGGAUGAAGUGAUGCAACACUGGAGCCGCUGGGAACUAAUUUGUAUGCGAAAGUAUAUUGAUUAGUUUUGGAGUACUCGUGGUCG
Summary of the method: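 Pooled colonies went to amplicon sequencing on an Illumina HiSeq 2500 after six replicate transformations. The plates were LB agar with 100 μg/mL carbenicillin, 50 μM IPTG and 0.2% rhamnose, with or without 25 μg/mL kanamycin, incubated overnight at 37°C or 30°C. The E. coli BL21(DE3) library had all eight P1ex-region intron nucleotides randomised, the intron placed in the knt kanamycin-resistance gene on pET-22b(+). DiMSum fitness is the error-weighted combination of replicate fold changes, kanamycin against none, normalised to wild type.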

| Sequence | self-splicing fitness (ln) (30 °C) | self-splicing fitness (ln) (37 °C) |
| --- | --- | --- |
| GCAUAGCAAUAUUACGGUGU | -4.14 ± 0.23 | -2.47 ± 0.2 |
| GCAUAGCAAUAUUACGUAAA | -2.43 ± 0.074 | -1.05 ± 0.08 |
| GCAUAGCAAUAUUACGUAUU | -3.09 ± 0.16 | -2.04 ± 0.17 |
| GCAUAGCAAUAUUACGUCCU | -1.16 ± 0.12 | -0.534 ± 0.15 |
| GCAUAGCAAUAUUACGUCUA | -0.451 ± 0.14 | -0.993 ± 0.13 |
| GCAUAGCAAUAUUACGUGCG | -2.26 ± 0.1 | -1.91 ± 0.14 |
| GCAUAGCAAUAUUACGUUAU | -2.61 ± 0.16 | -3.08 ± 0.27 |
| GCCAAGCAAUAUUACGAAGC | -2.7 ± 0.12 | -2.51 ± 0.17 |
| GCCAAGCAAUAUUACGACAU | -2.357 ± 0.015 | -1.37 ± 0.033 |
| GCCAAGCAAUAUUACGACGG | -3.8 ± 0.23 | -2.55 ± 0.21 |
| GCCAAGCAAUAUUACGAUAG | -3.28 ± 0.36 | -2.43 ± 0.25 |
| GCCAAGCAAUAUUACGAUCU | -1.94 ± 0.13 | -0.903 ± 0.098 |
| GCCAAGCAAUAUUACGAUUC | -0.96 ± 0.062 | -0.482 ± 0.082 |
| GCCAAGCAAUAUUACGCACU | -0.915 ± 0.077 | -0.196 ± 0.097 |
| GCCAAGCAAUAUUACGCAUU | -1.35 ± 0.072 | -0.715 ± 0.081 |
| GCCAAGCAAUAUUACGCCGG | -2.18 ± 0.26 | -2.13 ± 0.4 |
| GCCAAGCAAUAUUACGCGCG | -1.87 ± 0.13 | -0.932 ± 0.14 |
| GCCAAGCAAUAUUACGCGGC | -3.04 ± 0.22 | -3.03 ± 0.43 |
| GCCAAGCAAUAUUACGCGUU | -0.424 ± 0.059 | 0.358 ± 0.079 |
| GCCAAGCAAUAUUACGGAAG | -3.55 ± 0.34 | -2.57 ± 0.33 |
| GCCAAGCAAUAUUACGGAAU | -1.8 ± 0.15 | -0.618 ± 0.15 |
| GCCAAGCAAUAUUACGGACG | -1.6 ± 0.14 | 0.0859 ± 0.18 |
| GCCAAGCAAUAUUACGGCGC | -1.36 ± 0.11 | -0.697 ± 0.15 |
| GCCAAGCAAUAUUACGGGAU | -0.936 ± 0.075 | -0.693 ± 0.099 |
| GCCAAGCAAUAUUACGGGGC | -3.69 ± 0.22 | -2.85 ± 0.27 |

| Sequence | self-splicing fitness (ln) (30 °C) | self-splicing fitness (ln) (37 °C) |
| --- | --- | --- |
| GCCAAGCAAUAUUACGGGUA | -0.958 ± 0.052 | -0.102 ± 0.062 |
| GCCAAGCAAUAUUACGGUAC | -2.01 ± 0.13 | -0.941 ± 0.13 |
| GCCAAGCAAUAUUACGGUAG | -3.67 ± 0.22 | -2.82 ± 0.18 |
| GCCAAGCAAUAUUACGUACU | -1.15 ± 0.098 | -0.739 ± 0.12 |
| GCCAAGCAAUAUUACGUCCC | -0.579 ± 0.15 | -0.607 ± 0.3 |
| GCCAAGCAAUAUUACGUCCG | -2.19 ± 0.33 | -1.6 ± 0.32 |
| GCCAAGCAAUAUUACGUCCU | -2.11 ± 0.11 | -0.408 ± 0.12 |
| GCCAAGCAAUAUUACGUGAA | -0.726 ± 0.068 | 0.0387 ± 0.09 |
| GCCAAGCAAUAUUACGUGGG | -2.97 ± 0.1 | -3.25 ± 0.13 |
| GCCAAGCAAUAUUACGUGUU | -0.889 ± 0.049 | -0.309 ± 0.06 |
| GCCCAGCAAUAUUACGAGCC | -3.1 ± 0.24 | -0.756 ± 0.15 |
| GCCCAGCAAUAUUACGAUAA | -2.26 ± 0.11 | -1.57 ± 0.13 |
| GCCCAGCAAUAUUACGCAAC | -2.19 ± 0.091 | -0.000822 ± 0.095 |
| GCCCAGCAAUAUUACGCAUG | -3.92 ± 0.33 | -2.24 ± 0.38 |
| GCCCAGCAAUAUUACGCUAC | -3.18 ± 0.21 | -2.72 ± 0.29 |
| GCCCAGCAAUAUUACGCUAG | -3.11 ± 0.18 | -2.34 ± 0.17 |
| GCCCAGCAAUAUUACGCUCC | -0.416 ± 0.11 | -0.675 ± 0.12 |
| GCCCAGCAAUAUUACGGACU | -2.51 ± 0.16 | -0.873 ± 0.21 |
| GCCCAGCAAUAUUACGGCAA | -2.55 ± 0.19 | -0.273 ± 0.11 |
| GCCCAGCAAUAUUACGGCCC | -1.09 ± 0.18 | -0.738 ± 0.32 |
| GCCCAGCAAUAUUACGGCGA | -0.6 ± 0.082 | -0.337 ± 0.1 |
| GCCCAGCAAUAUUACGGCUG | -4.14 ± 0.2 | -2.22 ± 0.15 |
| GCCCAGCAAUAUUACGGGGA | -0.813 ± 0.082 | -0.181 ± 0.099 |
| GCCCAGCAAUAUUACGUAAG | -1.15 ± 0.072 | -0.871 ± 0.1 |
| GCCCAGCAAUAUUACGUACU | -0.0223 ± 0.1 | -0.765 ± 0.15 |

| Sequence | self-splicing fitness (ln) (30 °C) | self-splicing fitness (ln) (37 °C) |
| --- | --- | --- |
| GCCCAGCAAUAUUACGUAGC | -0.413 ± 0.07 | -0.216 ± 0.079 |
| GCCCAGCAAUAUUACGUCGU | -0.113 ± 0.066 | 0.0609 ± 0.072 |
| GCCCAGCAAUAUUACGUGGC | -3.51 ± 0.22 | -1.39 ± 0.19 |
| GCCCAGCAAUAUUACGUGGU | -4 ± 0.18 | -1.9 ± 0.14 |
| GCCCAGCAAUAUUACGUUAC | -2.2 ± 0.083 | -0.962 ± 0.087 |
| GCCGAGCAAUAUUACGAAAC | -2.15 ± 0.22 | -1.13 ± 0.17 |
| GCCGAGCAAUAUUACGAGCU | -2.84 ± 0.26 | -3.15 ± 0.33 |
| GCCGAGCAAUAUUACGAUAU | -2.51 ± 0.12 | -1.46 ± 0.11 |
| GCCGAGCAAUAUUACGAUGC | -0.994 ± 0.088 | -0.352 ± 0.096 |
| GCCGAGCAAUAUUACGCAGG | -3.43 ± 0.25 | -4.04 ± 0.42 |
| GCCGAGCAAUAUUACGCCAC | -2.11 ± 0.34 | – |
| GCCGAGCAAUAUUACGCCCC | -1.58 ± 0.37 | – |
| GCCGAGCAAUAUUACGCGCG | -2.53 ± 0.25 | – |
| GCCGAGCAAUAUUACGCUCG | -2.94 ± 0.27 | -2.02 ± 0.26 |
| GCCGAGCAAUAUUACGCUUA | -1.21 ± 0.072 | -0.233 ± 0.089 |
| GCCGAGCAAUAUUACGGAAU | -1.1 ± 0.09 | -0.698 ± 0.11 |
| GCCGAGCAAUAUUACGGAGU | -2.42 ± 0.18 | -1.56 ± 0.12 |
| GCCGAGCAAUAUUACGGAUC | -0.703 ± 0.074 | -0.376 ± 0.11 |
| GCCGAGCAAUAUUACGGUCG | -3.63 ± 0.21 | – |
| GCCGAGCAAUAUUACGGUCU | -2.23 ± 0.13 | -2.26 ± 0.24 |
| GCCGAGCAAUAUUACGGUUA | -0.775 ± 0.071 | -0.0707 ± 0.07 |
| GCCGAGCAAUAUUACGGUUU | -2.38 ± 0.098 | -0.815 ± 0.095 |
| GCCGAGCAAUAUUACGUAAA | -2.41 ± 0.14 | -1.36 ± 0.17 |
| GCCGAGCAAUAUUACGUACU | -2.15 ± 0.17 | -1.23 ± 0.18 |
| GCCGAGCAAUAUUACGUCAA | – | -2.36 ± 0.33 |

| Sequence | self-splicing fitness (ln) (30 °C) | self-splicing fitness (ln) (37 °C) |
| --- | --- | --- |
| GCCGAGCAAUAUUACGUCAC | – | -1.57 ± 0.24 |
| GCCGAGCAAUAUUACGUCCU | -2.96 ± 0.14 | -0.795 ± 0.13 |
| GCCUAGCAAUAUUACGAAAG | -4.21 ± 0.24 | -1.07 ± 0.18 |
| GCCUAGCAAUAUUACGAAGU | -0.618 ± 0.1 | -0.808 ± 0.12 |
| GCCUAGCAAUAUUACGAGAU | -1.88 ± 0.12 | -0.45 ± 0.11 |
| GCCUAGCAAUAUUACGAGCG | -1.38 ± 0.1 | 0.0723 ± 0.13 |
| GCCUAGCAAUAUUACGAGGA | -0.444 ± 0.06 | -0.065 ± 0.067 |
| GCCUAGCAAUAUUACGAGUA | -1.7 ± 0.093 | -1.88 ± 0.085 |
| GCCUAGCAAUAUUACGAGUU | -1.58 ± 0.061 | -0.309 ± 0.078 |
| GCCUAGCAAUAUUACGAUGC | -1.01 ± 0.081 | 0.0478 ± 0.13 |
| GCCUAGCAAUAUUACGAUUG | -2.49 ± 0.23 | -2.32 ± 0.26 |
| GCCUAGCAAUAUUACGCACC | -0.962 ± 0.26 | -0.41 ± 0.21 |
| GCCUAGCAAUAUUACGCAGA | -3.96 ± 0.33 | -2.06 ± 0.23 |
| GCCUAGCAAUAUUACGCAUA | -0.13 ± 0.18 | -0.428 ± 0.15 |
| GCCUAGCAAUAUUACGCCCC | -0.575 ± 0.27 | 0.517 ± 0.49 |
| GCCUAGCAAUAUUACGCGGU | -4.03 ± 0.28 | -3 ± 0.26 |
| GCCUAGCAAUAUUACGCGUC | -1.92 ± 0.15 | -0.202 ± 0.12 |
| GCCUAGCAAUAUUACGGAUU | -0.548 ± 0.085 | 0.334 ± 0.091 |
| GCCUAGCAAUAUUACGGCUC | -1.99 ± 0.15 | -0.272 ± 0.17 |
| GCCUAGCAAUAUUACGGUCC | -3.85 ± 0.33 | -1.66 ± 0.24 |
| GCCUAGCAAUAUUACGUAAC | -0.911 ± 0.17 | -0.248 ± 0.2 |
| GCCUAGCAAUAUUACGUAGA | -1.73 ± 0.16 | 0.22 ± 0.13 |
